Reference: the supplement of paper PMC9112550, “Optimization of the antimicrobial peptide Bac7 by deep mutational scanning” (BMC Biology, 2022)

System: Escherichia coli TOP10
Assay: shrunken log2 fold change of peptide-encoding DNA abundance (4.5 h post-induction vs induction); higher = less antimicrobial activity (less host growth inhibition)
Conditions: time post-induction: 4.5 h; library: site-saturation at positions 5, 18, 19, 20
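Further: peptides expressed intracellularly from a pBAD plasmid library in pooled LB shake-flask culture, induced with 0.3% L-arabinose, DNA abundance read by NGS, three biological replicates, DESeq2 with apeglm shrinkage.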

| Sequence | shrunken log2 fold change |
| --- | --- |
| RRIRMRPPRLPRPRPRPWYAPRP | -0.475 |
| RRIRTRPPRLPRPRPRPLFCPRP | -0.287 |
| RRIRQRPPRLPRPRPRPDYQPRP | 0.00672 |
| RRIRKRPPRLPRPRPRPLWIPRP | 0.134 |
| RRIRVRPPRLPRPRPRPNFRPRP | 0.19 |
| RRIRARPPRLPRPRPRPERFPRP | 0.0769 |
| RRIRLRPPRLPRPRPRPNLSPRP | -0.548 |
| RRIRVRPPRLPRPRPRPDMCPRP | 0.0884 |
| RRIRLRPPRLPRPRPRPNFLPRP | -0.153 |
| RRIRTRPPRLPRPRPRPTKWPRP | -0.0752 |
| RRIRYRPPRLPRPRPRPCGHPRP | -0.0238 |
| RRIRIRPPRLPRPRPRPVESPRP | -0.0832 |
| RRIRGRPPRLPRPRPRPAGCPRP | 0.973 |
| RRIRQRPPRLPRPRPRPFPKPRP | 0.0141 |
| RRIRGRPPRLPRPRPRPYIEPRP | -0.114 |
| RRIRRRPPRLPRPRPRPTEEPRP | 1.07 |
| RRIRLRPPRLPRPRPRPTSWPRP | 0.199 |
| RRIRKRPPRLPRPRPRPTRKPRP | 3.78 |
| RRIRWRPPRLPRPRPRPSRNPRP | -0.0585 |
| RRIRMRPPRLPRPRPRPEFWPRP | 0.893 |
| RRIRCRPPRLPRPRPRPCEHPRP | -0.328 |
| RRIRSRPPRLPRPRPRPDQVPRP | -0.0236 |

| Sequence | shrunken log2 fold change |
| --- | --- |
| RRIRHRPPRLPRPRPRPQSGPRP | 0.165 |
| RRIRKRPPRLPRPRPRPYFYPRP | -0.274 |
| RRIRQRPPRLPRPRPRPNGWPRP | -0.0145 |
| RRIRARPPRLPRPRPRPMVRPRP | 0.348 |
| RRIRARPPRLPRPRPRPQPDPRP | 0.254 |
| RRIRHRPPRLPRPRPRPVVNPRP | 0.00319 |
| RRIRYRPPRLPRPRPRPMTIPRP | -0.936 |
| RRIRTRPPRLPRPRPRPGKFPRP | -0.0892 |
| RRIRTRPPRLPRPRPRPNACPRP | -0.0597 |
| RRIRRRPPRLPRPRPRPSQHPRP | 0.0591 |
| RRIRTRPPRLPRPRPRPQNDPRP | -0.749 |
| RRIRARPPRLPRPRPRPYWCPRP | -0.33 |
| RRIRNRPPRLPRPRPRPPISPRP | 0.129 |
| RRIRGRPPRLPRPRPRPPNIPRP | 0.083 |
| RRIRGRPPRLPRPRPRPLGGPRP | 0.615 |
| RRIRDRPPRLPRPRPRPSDQPRP | 0.204 |
| RRIRLRPPRLPRPRPRPHQTPRP | 0.001 |
| RRIRWRPPRLPRPRPRPSERPRP | 0.415 |
| RRIRMRPPRLPRPRPRPGMIPRP | -0.00139 |
| RRIRERPPRLPRPRPRPYWFPRP | -1.02 |
| RRIRQRPPRLPRPRPRPNDFPRP | 0.0233 |
| RRIRARPPRLPRPRPRPVWQPRP | 0.129 |

| Sequence | shrunken log2 fold change |
| --- | --- |
| RRIRHRPPRLPRPRPRPCNDPRP | -0.283 |
| RRIRSRPPRLPRPRPRPECVPRP | 0.673 |
| RRIRWRPPRLPRPRPRPYDRPRP | 0.0155 |
| RRIRCRPPRLPRPRPRPHATPRP | 0.204 |
| RRIRRRPPRLPRPRPRPYLEPRP | -0.298 |
| RRIRVRPPRLPRPRPRPQQPPRP | 0.124 |
| RRIRERPPRLPRPRPRPGEMPRP | -0.0373 |
| RRIRDRPPRLPRPRPRPCLSPRP | 0.000319 |
| RRIRYRPPRLPRPRPRPMCWPRP | -0.213 |
| RRIRMRPPRLPRPRPRPWVYPRP | -0.0124 |
| RRIRNRPPRLPRPRPRPVGYPRP | 0.025 |
| RRIRERPPRLPRPRPRPAYCPRP | 0.0672 |
| RRIRPRPPRLPRPRPRPQRHPRP | -0.14 |
| RRIRHRPPRLPRPRPRPMHAPRP | -9.3e-05 |
| RRIRWRPPRLPRPRPRPMTCPRP | -0.34 |
| RRIRCRPPRLPRPRPRPMKIPRP | 0.13 |
| RRIRHRPPRLPRPRPRPIWCPRP | -0.0133 |
| RRIRCRPPRLPRPRPRPLICPRP | -0.499 |
| RRIRVRPPRLPRPRPRPPPGPRP | 1.01 |
| RRIRERPPRLPRPRPRPKPEPRP | 0.12 |
| RRIRTRPPRLPRPRPRPIRKPRP | 0.0309 |
| RRIRSRPPRLPRPRPRPQPWPRP | 0.366 |

| Sequence | shrunken log2 fold change |
| --- | --- |
| RRIRSRPPRLPRPRPRPFDWPRP | -0.0461 |
| RRIRARPPRLPRPRPRPSATPRP | 1.26 |
| RRIRRRPPRLPRPRPRPKDCPRP | 0.132 |
| RRIRNRPPRLPRPRPRPSMEPRP | -0.118 |
| RRIRKRPPRLPRPRPRPIFIPRP | -0.173 |
| RRIRPRPPRLPRPRPRPGTAPRP | 0.163 |
| RRIRARPPRLPRPRPRPHFRPRP | 0.166 |
| RRIRMRPPRLPRPRPRPGDLPRP | -0.0671 |
| RRIRCRPPRLPRPRPRPPGWPRP | 0.612 |
| RRIRDRPPRLPRPRPRPCKEPRP | 0.00884 |
| RRIRSRPPRLPRPRPRPHFYPRP | 0.166 |
| RRIRRRPPRLPRPRPRPENQPRP | 0.368 |
| RRIRHRPPRLPRPRPRPNQIPRP | -0.327 |
| RRIRARPPRLPRPRPRPQHKPRP | 0.292 |
| RRIRHRPPRLPRPRPRPSTPPRP | -0.225 |
| RRIRRRPPRLPRPRPRPSYCPRP | -0.0727 |
| RRIRHRPPRLPRPRPRPSWEPRP | -0.0671 |
| RRIRSRPPRLPRPRPRPGERPRP | 0.637 |
| RRIRSRPPRLPRPRPRPRDNPRP | -0.0866 |
| RRIRMRPPRLPRPRPRPNQVPRP | -0.217 |
| RRIRRRPPRLPRPRPRPCKYPRP | -0.915 |
| RRIRPRPPRLPRPRPRPMYHPRP | -0.35 |

| Sequence | shrunken log2 fold change |
| --- | --- |
| RRIRIRPPRLPRPRPRPKRQPRP | 0.174 |
| RRIRHRPPRLPRPRPRPGDTPRP | -0.0174 |
| RRIRFRPPRLPRPRPRPDHAPRP | -0.102 |
| RRIRQRPPRLPRPRPRPMAIPRP | -0.326 |
| RRIRSRPPRLPRPRPRPQAFPRP | -0.114 |
| RRIRKRPPRLPRPRPRPRHFPRP | 0.0965 |
| RRIRNRPPRLPRPRPRPGYHPRP | -0.37 |
| RRIRMRPPRLPRPRPRPWRTPRP | 0.324 |
| RRIRHRPPRLPRPRPRPSQYPRP | -0.372 |
| RRIRRRPPRLPRPRPRPTYKPRP | -0.163 |
| RRIRARPPRLPRPRPRPLDDPRP | 0.875 |
| RRIRIRPPRLPRPRPRPNRFPRP | -0.174 |
| RRIRHRPPRLPRPRPRPNMSPRP | -0.245 |
| RRIRTRPPRLPRPRPRPACEPRP | 0.0463 |
| RRIRSRPPRLPRPRPRPNEVPRP | -0.131 |
| RRIRGRPPRLPRPRPRPQHIPRP | -0.281 |
| RRIRWRPPRLPRPRPRPEWTPRP | 0.0673 |
| RRIRGRPPRLPRPRPRPGICPRP | 0.808 |
| RRIRPRPPRLPRPRPRPEESPRP | -0.0202 |
| RRIRCRPPRLPRPRPRPHIGPRP | 0.000633 |
| RRIRDRPPRLPRPRPRPICLPRP | 0.0829 |
